Earlier results in publication PMC9539805.
pKd: −log10 of the molar value.

Experiments:
[1] = target: spike protein (SARS-CoV-2) (UniProt P0DTC2)
[2] = target: spike protein RBD (SARS-CoV-2) (UniProt P0DTC2)

CV-N (from UniProt P81180)
pKd [1]: 4.73
pKd [2]: 3.59
